The target in assay [1] is T1, recombinant human N-terminal CCR6 Fc (human).
T1 construct: also called human CCR6-Fc; hsCCR6-Nter-Fc
The assay can be described thus: direct ELISA, Fc fusion coated at 2 µg/ml, anti-human F(ab')2-HRP. Here is the method: (§1) FIG. 8: Direct binding ELISA on immobilized recombinant human N-terminal CCR6 Fc. Binding of humanized 4H11 H5L1 antibody on human N terminus fragment of CCR6 was measured by direct ELISA. Various concentrations (ranging from 10 to 0.00006 μg/ml) of humanized 4H11 H5L1 in IgG1 and IgG4HS backbones were incubated with 2 μg/ml of either recombinant human N terCCR6-Fc tagged protein (FIG. 8A) or recombinant cynomologus N-terminal peptide Fc (FIG. 8B), coated overnight at 4° C. in a 96-well plate. Binding of humanized 4H11 H5L1 antibody to Nter CCR6-Fc protein was detected by horseradish peroxidase (HRP)-conjugated anti-human (Fab)′2-specific antibody.
(§2) A binding ELISA was performed to test the reactivity of 4H11 VH5/VL1 IgG1 and 4H11 VH5/VL1 IgG4HS antibodies on peptides consisting of the N-terminal region of CCR6 from human and cynomologus species. Briefly, 96 well-microtiter plates (Costar USA, distributor VWR AG, Nyon, Switzerland) were coated with 100 μl of recombinant human and cynomologus N-terminus peptide-Fc at 2 μg/ml in PBS. Plates were incubated overnight at 4° C. and were then blocked with PBS 2% BSA (Bovine Serum Albumine, PAA Laboratories, Pasching, Austria) at room temperature (RT) for one hour. The blocking solution was removed and various concentrations of 4H11 VH5/VL1 IgG1 and 4H11 VH5/VL1 IgG4HS were added. The plates were incubated at RT for 1 hour, then washed six times with PBS 0.01% Tween-20 (Sigma-Aldrich Chemie GmbH, Buchs, Switzerland) and a goat-anti human Ig F(ab′)2 fragment specific-HRP (Jackson ImmunoResearch Europe Ltd, Newmarket, UK). After washing, the plates were incubated with TMB substrate (Bio-Rad Laboratories AG, Reinach, Switzerland) to reveal antibody binding. The reaction was stopped by adding 2M H₂SO₄ and the optical density was read at 450 nm (OD 450 nm) on a Synergy HT2 spectrophotometer (Biotek, USA; distributor: WITTEC AG, Littau, Switzerland).
(In general: An ELISA detects its analyte on a solid surface through an enzyme-linked reagent.)

Assay [2] concerns the target T2, recombinant cynomologus N-terminal CCR6 peptide Fc (cynomolgus monkey; human).
T2 construct: It differs from the human construct only in the CCR6 N-terminus; also called Cyno CCR6-Fc; cynoCCR6-Nter-Fc
The assay is described as above. Here is the method:
as §1, §2

In assay [3] the target is T1, recombinant human N-terminal CCR6 Fc. The assay can be described thus: SPR (BIAcore 2000), Fc-fused peptide immobilized on CM5 chip, antibody as analyte, bivalent analyte model. Here is the method: (§3) Kinetic binding affinity constants (KD) were measured on Fc-fused huCCR6 N-terminal and cynoCCR6 N-terminal peptides with the 4H11 VH5/VL1 IgG4hs antibody as analyte. Same measurements were performed using the 4H11 VH5/VL1 IgG1 antibody and chimeric 4H11 antibody for comparison. Measurements were conducted on a BIAcore 2000 (GE Healthcare—BIAcore, GE Healthcare Europe GmbH, Glattbrugg, Switzerland) at room temperature, and analyzed with the BiaEvaluation software (BIAcore; v4.1, GE Healthcare Europe GmbH) using a bivalent analyte kinetic affinity model.
(§4) A CM5 research grade sensor chip (GE Healthcare Europe GmbH; ref. BR-1000-14) was activated by injecting 35 μl of a 1:1 N-hydroxysulfosuccinimide (NHS)/1-Ethyl-3-[3-dimethylaminopropyl]carbodiimide Hydrochloride (EDC) solution (v/v; 5 μl/min flow-rate; on flow paths 1 and 2). Fc-fused human or cynomologus CCR6 N-terminal peptides were diluted to a final concentration of 25 nM in acetate buffer pH 4.5 (GE Healthcare Europe GmbH, BR-1003-50; one pH unit below pI) and subsequently immobilized on the previously activated CM5 sensor chip by injecting 20 μl on both flow path 1 and 2 (5 μl/min); this corresponded to approximately 300 response units (RUs). The human or cynomologus CCR6 N-terminal peptides coupled CM5 sensor chip was then deactivated by injecting 35 μl of ethanolamine solution (5 μl/min). […]
On the technique in general: SPR reads the build-up and loss of mass on a sensor chip optically.

Assay [4] has as its target T2, recombinant cynomologus N-terminal CCR6 …. Described as above. Here is the method: as §3, §4
The target in assay [5] is T1, recombinant human N-terminal CCR6 Fc. As to the kind of experiment: SPR (BIAcore 2000), Fc-fused human CCR6 N-terminal peptide immobilised on CM5, antibody as analyte, bivalent analyte model. The protocol: as §3, §4
Assay [6] addresses T2, recombinant cynomologus N-terminal CCR6 …. The assay can be described thus: SPR (BIAcore 2000), Fc-fused cynomolgus CCR6 N-terminal peptide immobilised on CM5, antibody as analyte, bivalent analyte model. Here is the method: as §3, §4
The target in assay [7] is T3, human CCR6 (human, UniProt P51684 1-374).
T3 construct: Full length human CCR6 on transfected BAF or CHO cells, or native on human PBMCs; also called hsCCR6; CCR6 receptor
T3 sequence: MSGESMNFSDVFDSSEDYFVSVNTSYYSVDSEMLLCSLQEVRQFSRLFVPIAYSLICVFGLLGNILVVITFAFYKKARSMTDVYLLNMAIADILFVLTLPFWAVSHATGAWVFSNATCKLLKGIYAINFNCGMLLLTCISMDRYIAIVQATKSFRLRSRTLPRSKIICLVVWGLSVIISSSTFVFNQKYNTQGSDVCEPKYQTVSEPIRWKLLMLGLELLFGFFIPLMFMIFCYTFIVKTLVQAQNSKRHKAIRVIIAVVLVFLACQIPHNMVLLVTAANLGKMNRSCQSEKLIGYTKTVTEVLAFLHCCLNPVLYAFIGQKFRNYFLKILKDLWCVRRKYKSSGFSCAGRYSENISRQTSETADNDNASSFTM
The assay can be described thus: flow cytometry blocking assay on CCR6-transfected BAF cells; blocked ligand: recombinant human CCL20 at 0.5 µg/ml, detected with biotinylated anti-CCL20 and streptavidin-APC. The protocol: Cells transfected with CCR6 were incubated at 4° C. for 20 minutes with humanized 4H11-VH5/VL1 serially diluted (from 100 to 0.00001 μg/ml) in FACS buffer containing 0.1% of azide. Cells were centrifuged and incubated at 4° C. for 20 minutes with 0.5 μg/ml of recombinant human CCL20. To detect CCL20 bound to CCR6, cells were incubated with a biotinylated goat anti-human CCL20, followed by incubation with Allophycocyanin (APC)-labelled Streptavidin diluted at 1/100 in FACS buffer containing 0.1% of azide. To evaluate blocking potential of humanized 4H11 VH5/VL1 IgG4HS, percentage of CCL20 was measured at each concentration of antibody. Maximum binding activity of CCL20 to CCR6 was calculated as a percentage of that seen for the isotype control.
To determine whether 4H11 VH5/VL1 IgG4HS neutralizes CCR6-mediated biological function through a direct inhibition of CCL20-CCR6 interaction, an assay using flow cytometry approach was set up. Briefly, BAF cells transfected with CCR6 were counted and diluted at 1*10⁶ cells/ml in FACS buffer containing 0.1% of azide. […] Then, CCL20 was detected using a biotinylated anti-human CCL20 (R&D Systems, clone BAF360) followed by allophycocyanin (APC)-labelled streptavidin diluted in FACS buffer+0.1% azide at 1 μg/ml and 1/100, respectively. Cells were washed two times in FACS buffer, 0.1% azide and samples were analysed by flow cytometry. […]
(In general: Flow cytometry measures light scatter and fluorescence of single cells or particles in a stream.)

B1: 4H11 VH5/VL1 IgG4HS antibody (antibody, V domains shown)
VH: EVQLVESGGGLVQPGGSLRLSCAASGFSFSDYYMYWVRQAPGKGLEWVSYITNGGITYYPDSVKGRFTISRDNSKNTLYLQMNSLRAEDTAVYYCTSPLRGAWFAYWGQGTLVTVSS
VL: DVVMTQSPLSLPVTLGQPASISCRSSQSIVHSNGNTYLEWYQQRPGQSPRLLIYKVSNRFSGVPDRFSGSGSGTDFTLKISRVEAEDVGVYYCFQGSHVPLTFGQGTKLEIK
notes: also called humanized 4H11 H5L1 IgG4HS; humanized 4H11-VH5/VL1
One may read the EC50 (read off the curve) as the concentration that produces a half-maximal response. Usually koff stands for the first-order rate constant of dissociation. What is called kon is a measure of how fast the partners come together. Consider B1, for which the “EC50 (read off the curve)” value in assay [1] is about 0.06 µg/mL; in assay [2], about 0.2 µg/mL. Moreover, the figures for the Kd in assay [3] and in assay [4] were 1.56 nM and 4.67 nM, respectively. The off-rate (koff) in assay [5] was 0.000798 s⁻¹; in assay [6] it was 0.0015 s⁻¹. Further, the kon in assay [5] was 510000 M⁻¹ s⁻¹; in assay [6] it was 320000 M⁻¹ s⁻¹. The “IC50 (read off the curve)” value in assay [7] was about 0.5 µg/mL.

The values above are taken from patent US20180086836A1 (GLENMARK PHARMACEUTICALS S A, published 2018).
